Measurements from PMC6234505.

Molecular target: GST-SHP2 PTP DAQA (substrate trapping mutant D425A/Q506A)
Test: pull-down

fold more pulled down than by GST-SHP2 WT: 14 fold
Substance: YFP-GluN2B, tyrosine phosphorylated, in cell lysate (from UniProt Q00960 27-1482) (receptor)
